Patent US20120309934A1 (GWANGJU INSTITUTE OF SCIENCE AND TECHNOLOGY, published 2012)

How the values were obtained:
[1] = target: T1, Fibronectin ED-B protein (human fibronectin extra domain B, N-terminal His-tag) (human, UniProt P02751 1266-1356, biotinylated with sulfo-NHS-SS-biotin for biopanning, input-phage ELISA and SPR on the streptavidin chip); experiment: SPR (Biacore), ED-B
T1 construct: domain: ED-B; Expressed in E. coli BL21 from pET28b; also called biotinylated-EDB; not shown: N-terminal His-tag from the pET28b vector
Method: (§1) Bipodal-peptide binder peptides specific to ED-B, VEGF or nAchR which were repetitively found in DNA sequencing were synthesized from Anigen Inc. (Korea). Affinity was measured using BIAcore X instrument (Biacore AB, Uppsala, Sweden). ED-B and nAchR were immobilized on streptavidin (SA) chip (Biacore) by injecting 2,000 RU biotinylated-EDB. VEGF was immobilized on CM5 chip (Biacore) using EDC/NHS. PBS (pH 7.4) was used as a running buffer.
(§2) To verify cooperative effect of bipodal-peptide binder to antigen, we synthesized two peptides removing either N- or C-terminal region of peptide 2 to ED-B having excellent specificity in Table 3a for affinity measurement.

[2] = target: T1, Fibronectin ED-B protein (human …); experiment: SPR, synthetic truncated peptide on ED-B
Method: as §1, §2

[3] = target: T2, VEGF121 (human vascular endothelial growth factor) (human, UniProt P15692-9 27-147); experiment: phage ELISA: clones with higher absorbance than on BSA, sequenced
T2 construct: Immobilised on a CM5 chip by EDC/NHS for SPR and coated on plates for phage ELISA; also called VEGF-Trx cut with thrombin
T2 sequence (looked up): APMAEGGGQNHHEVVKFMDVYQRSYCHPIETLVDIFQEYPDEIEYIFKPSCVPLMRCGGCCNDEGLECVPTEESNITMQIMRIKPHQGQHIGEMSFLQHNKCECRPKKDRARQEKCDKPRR
Method: (§3) The transformed cells were infected with Ex helper phages (5×10⁹ pfu/ml; OD=0.8-1.0) and cultured at 37° C. for 1 hr with shaking at 200 rpm. After removing the supernatant by centrifuging at 1,000×g for 10 min, the precipitated cells were resuspended in 1 ml LB liquid media supplemented with 50 μg/ml ampicillin and 25 μg/ml kanamycin, and cultured at 30° C. overnight with shaking at 200 rpm. The supernatant was collected by centrifuging at 10,000×g for 20 min at 4° C. and mixed with 2% skim milk, which is used in detection of phage peptides.
(§4) Fibronectin ED-B, VEGF, VCAM1, Nicotinic acetylcholine receptor (nAchR), Human serum albumin and MyD88 (each 5 μg/ml) and BSA (10 μg/ml) were added to 30 wells (50 μl per well) in a 96-well ELISA plate and then kept to stand at 4° C. overnight. Next day, all wells were washed with 0.1% PBST three times, and blocked at room temperature for 2 hrs using 2% skim milk diluted with PBS. Then, the solution was removed and the plate was washed with 0.1% PBST three times. Phage peptide solution (100 μl) amplified from each clone was divided into all wells and kept to stand at 27° C. for 1.5 hrs. After washing with 0.1% PBST 5 times, HRP-conjugated anti-M13 antibodies (1:1,000 dilution; GE Healthcare) were added to each well and incubated at 27° C. for 1 hr. After washing with 0.1% PBST 5 times, 100 μl TMB was divided into each well to induce colorimetric reaction, followed by stopping the reaction adding 100 μl of 1 M HCl. The absorbance was measured at 450 nm to select phages which had the absorbance higher than BSA. XL1 cells were infected with these phages and spread in plate to produce 100-200 of plaques. Using a sterile tip, plaques were inoculated in 4 ml LB-ampicillin (50 μg/ml) media and cultured at 37° C. overnight with vigorous shaking. Plasmids were purified by plasmid preparation kit (GeneAll, Seoul, Korea), and then sequenced. The following phagemid sequence was used for sequencing: 5′-[…]-3′.
(§5) The phages recovered from biopanning step having the highest ratio of output phage to input phage were isolated as plaques. Sixty plaques were amplified from each plaque, and then ELISA for BSA was carried out (FIG. 4). After selecting clones with higher absorbance compared to BSA, they were sequenced. We isolated peptides specific to each protein which were repetitively found in DNA sequencing (Table 3).

[4] = target: T1, Fibronectin ED-B protein (human …); experiment: SPR (BIAcore X), biotinylated ED-B on SA chip
Method: (§6) In addition to tryptophan zipper, GB1 m3 and HP7 peptide as a type of other (3-hairpin backbones were synthesized to contain N-terminal sequence (HCSSAV) and C-terminal sequence (IIRLEQ) of peptide 2 which is specifically bound to ED-B (Anigen, Korea). In other words, the sequence of bipodal-peptide binder in tryptophan zipper is […], and in GB1 m3 and HP7 are […] and […], respectively. Affinity of each peptide was measured using BIAcore X (Biacore AB, Uppsala, Sweden). ED-B was immobilized on streptavidin (SA) chip (Biacore) by injecting 2,000 RU biotinylated-EDB. PBS (pH 7.4) was used as a running buffer. […] It could be appreciated that all stable β-hairpin motifs may function as a structure stabilizing region.

[5] = target: T1, Fibronectin ED-B protein (human …); experiment: SPR (BIAcore X), 2,000 RU biotinylated ED-B on streptavidin chip, PBS pH 7.4, 30 µl/min
Method: as §6

Human serum albumin = target: T3, Human serum albumin (human, UniProt P02768 25-609); experiment: phage ELISA: clones with higher absorbance than on BSA, sequenced
T3 construct: Bought protein; also called HSA; HAS
Method: as §3, §4, §5

[6] = target: T2, VEGF121 (human vascular endothelial …); experiment: SPR (BIAcore X), VEGF on CM5 chip
Method: as §1
(§7) The above-mentioned peptides were synthesized and their affinities to fibronectin ED-B, VEGF, VCAM1, nAchR and HAS were measured using SPR Biacore system (Biacore AB, Uppsala, Sweden).

[7] = target: T2, VEGF121 (human vascular endothelial …); experiment: SPR (BIAcore X), VEGF on CM5 chip, synthetic peptide as analyte
Method: as §1, §7

[8] = target: T1, Fibronectin ED-B protein (human …); experiment: SPR (BIAcore X), biotinylated ED-B on SA chip; remark: listed apart in the source
Method: as §1, §7

[9] = target: T1, Fibronectin ED-B protein (human …); experiment: SPR (BIAcore X), biotinylated ED-B on streptavidin chip, synthetic peptide as analyte
Method: as §1, §7

[10] = target: T4, GST-AR DBD protein (androgen receptor DNA binding domain with N-terminal GST) (UniProt P10275 556-636); experiment: phage ELISA of single clones on AR-DBD against BSA
T4 construct: In ELISA and EMSA the text calls the protein AR-DBD or AR DBD protein; also called androgen receptor DBD; not shown: GST encoded by the pGEX-4T-1 vector, N-terminal
T4 sequence (looked up): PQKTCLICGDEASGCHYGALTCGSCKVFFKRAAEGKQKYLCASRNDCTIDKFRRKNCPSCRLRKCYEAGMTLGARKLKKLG
Method: AR-DBD (10 μg/ml) and BSA (10 μg/ml) each was added to 30 wells (50 μl per well) in a 96-well ELISA plate and then kept to stand at 4° C. overnight. Next day, all wells were washed with 0.1% PBST three times, and blocked at room temperature for 2 hrs using 2% skim milk diluted with PBS. Then, the solution was removed and the plate was washed with 0.1% PBST three times. Phage peptide solution (100 μl) amplified from each clone was aliquoted to […] protein-bound wells and BSA protein-bound wells and kept to stand at 27° C. for 1.5 hrs. After washing with 0.1% PBST 10 times, HRP-conjugated anti-M13 antibodies (1:1,000 dilution; GE Healthcare) were added to each well and incubated at 27° C. for 1 hr. After washing with 0.1% PBST 5 times, 100 μl TMB was divided into each well to induce colorimetric reaction, followed by stopping the reaction adding 100 μl of 1 M HCl. The absorbance was measured at 450 nm to select phages which had the absorbance above 20-fold higher than BSA. XL1 cells were infected with these phages and spread in plate to produce 100-200 of plaques. […]
The phages recovered from the 5th biopanning step having the highest O/I ratio in each library were isolated as plaques. […] Most plaques were analyzed to show the absorbance value of AR-DBD higher than that of BSA. The DNA sequencing was performed for 20 clones showing the absorbance value above 5-fold higher than BSA. […]

[11] = target: T5, Peptide fragment of nAchR (Nicotinic acetylcholine receptor), 32 mer, biotinylated (N-terminal biotin); experiment: phage ELISA: clones with higher absorbance than on BSA, sequenced
T5 construct: Synthesised by Anigen; Immobilised on a streptavidin chip for SPR; also called biotinylated nAchR; biotinylated-nAchR peptide
T5 peptide: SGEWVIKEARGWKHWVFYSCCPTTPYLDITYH
Method: as §3, §4, §5

BSA = target: T6, BSA (UniProt P02769 25-607); experiment: phage ELISA, absorbance at 450 nm
T6 construct: Control protein in the input-phage ELISA; also called bovine serum albumin
T6 sequence (P02769 25-607 limits assumed): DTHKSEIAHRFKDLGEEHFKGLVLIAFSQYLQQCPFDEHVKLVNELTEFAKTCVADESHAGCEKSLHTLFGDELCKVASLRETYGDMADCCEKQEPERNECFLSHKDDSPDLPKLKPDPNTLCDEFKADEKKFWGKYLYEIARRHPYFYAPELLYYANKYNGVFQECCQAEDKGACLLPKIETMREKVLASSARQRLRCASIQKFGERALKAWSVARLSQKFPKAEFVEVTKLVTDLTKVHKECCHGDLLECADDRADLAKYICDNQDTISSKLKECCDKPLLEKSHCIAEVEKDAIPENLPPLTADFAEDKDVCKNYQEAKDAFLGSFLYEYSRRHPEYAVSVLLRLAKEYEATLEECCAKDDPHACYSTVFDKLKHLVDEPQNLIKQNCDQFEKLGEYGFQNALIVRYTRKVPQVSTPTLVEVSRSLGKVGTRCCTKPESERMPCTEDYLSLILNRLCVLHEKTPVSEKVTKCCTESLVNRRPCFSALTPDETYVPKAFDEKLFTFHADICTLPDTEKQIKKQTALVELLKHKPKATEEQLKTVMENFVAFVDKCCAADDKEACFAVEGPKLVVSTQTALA

T3 sequence (P02768 25-609 limits assumed): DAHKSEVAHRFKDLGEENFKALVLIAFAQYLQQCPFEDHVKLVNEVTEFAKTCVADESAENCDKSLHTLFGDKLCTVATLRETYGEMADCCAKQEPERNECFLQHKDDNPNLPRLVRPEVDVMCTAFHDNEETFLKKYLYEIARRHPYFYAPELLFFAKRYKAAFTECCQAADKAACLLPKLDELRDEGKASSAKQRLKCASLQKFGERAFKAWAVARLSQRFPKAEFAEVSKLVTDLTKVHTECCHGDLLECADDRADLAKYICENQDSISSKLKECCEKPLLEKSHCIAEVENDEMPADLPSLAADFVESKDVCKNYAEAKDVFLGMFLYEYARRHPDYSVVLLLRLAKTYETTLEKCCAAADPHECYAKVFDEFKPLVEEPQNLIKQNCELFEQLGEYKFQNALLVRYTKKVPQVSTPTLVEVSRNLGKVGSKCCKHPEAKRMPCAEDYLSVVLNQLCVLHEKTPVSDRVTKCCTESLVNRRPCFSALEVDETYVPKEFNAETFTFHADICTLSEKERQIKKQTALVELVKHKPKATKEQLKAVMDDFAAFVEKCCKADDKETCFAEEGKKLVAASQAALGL
T1 sequence (P02751 1266-1356): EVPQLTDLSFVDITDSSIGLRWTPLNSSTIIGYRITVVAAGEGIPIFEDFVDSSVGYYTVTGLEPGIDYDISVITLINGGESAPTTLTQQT

Binder: GSWTWENGKWTWKGIIRLEQ [C-terminal region peptide derived from ED-B peptide 2 (monopodal, one target binding region removed)]
- koff [1]: 0.022 s⁻¹
- kon [1]: 1770 M⁻¹ s⁻¹
- Kd [2]: 12800 nM

Binder: AAPTSFGSWTWENGKWTWKGWQMWHR [Peptide 5 specific to VEGF (Table 3b), bipodal-peptide binder]
- binding result [3]: binds

Binder: HCSSAVGKTWNPATGKWTEGIIRLEQ (Synthetic peptide (Anigen)) [Bipodal-peptide binder with HP7 β-hairpin backbone carrying the ED-B peptide 2 binding regions]
- koff [4]: 0.0197 s⁻¹
- kon [4]: 236000 M⁻¹ s⁻¹
- Kd [5]: 84 nM

Binder: HCSSAVGKKWTYNPATGKFTVQEGIIRLEQ (Synthetic peptide (Anigen)) [Bipodal-peptide binder with GB1 m3 β-hairpin backbone carrying the ED-B peptide 2 binding regions]
- koff [4]: 0.0119 s⁻¹
- kon [4]: 169000 M⁻¹ s⁻¹
- Kd [5]: 70 nM

Binder: HCSSAVGSWTWENGKWTWKG [N-terminal region peptide derived from ED-B peptide 2 (monopodal, one target binding region removed)]
- koff [1]: 2.54 s⁻¹
- kon [1]: 4290 M⁻¹ s⁻¹
- Kd [2]: 592000 nM

Binder: YAHFGWGSWTWENGKWTWKGTTDSQS [Peptide 5 specific to HSA (Table 3e), bipodal-peptide binder]
- binding result (Human serum albumin): binds

Binder: ASPFWAGSWTWENGKWTWKGWVPSNA [Peptide 2 specific to VEGF (Table 3b), bipodal-peptide binder]
- koff [6]: 0.011 s⁻¹
- kon [6]: 35000 M⁻¹ s⁻¹
- Kd [7]: 326 nM

Binder: MSADKSGSWTWENGKWTWKGQVRTRD [Peptide 1 specific to fibronectin ED-B (Table 3a), bipodal-peptide binder]
- koff [8]: 0.024 s⁻¹
- kon [8]: 38000 M⁻¹ s⁻¹
- Kd [9]: 620 nM

Binder: HSQGSPGSWTWENGKWTWKGRYSHRA [Peptide 3 specific to fibronectin ED-B (Table 3a), bipodal-peptide binder]
- koff [8]: 0.099 s⁻¹
- kon [8]: 390000 M⁻¹ s⁻¹
- Kd [9]: 2500 nM

Binder: HAFYYTGSWTWENGKWTWKGWPVTTS [Peptide 3 specific to VEGF (Table 3b), bipodal-peptide binder]
- binding result [3]: binds

Binder: GGHNIQGSWTWENGKWTWKGWQHIWG [Peptide 2 from the AR-DBD biopanning (6/20 clones), bipodal-peptide binder]
- fold absorbance over BSA [10]: > 5 fold

Binder: SANSLYGSWTWENGKWTWKGTSRQRW [Peptide 2 specific to HSA (Table 3e), bipodal-peptide binder]
- binding result (Human serum albumin): binds

Binder: YAHVYYGSWTWENGKWTWKGHRVTQT [Peptide 3 specific to HSA (Table 3e), bipodal-peptide binder]
- binding result (Human serum albumin): binds

Binder: YAYPLLGSWTWENGKWTWKGWYQKWI [Peptide 2 specific to nAchR (Table 3d), bipodal-peptide binder]
- binding result [11]: binds

Binder: YGFAPFGSWTWENGKWTWKGYSTQKP [Peptide 1 from the AR-DBD biopanning (14/20 clones), bipodal-peptide binder]
- fold absorbance over BSA [10]: > 5 fold

Binder: YGAYPWGSWTWENGKWTWKGWRVSRD
- binding result [3]: binds
- binding result (Human serum albumin): binds

Binder: ASLPAWGSWTWENGKWTWKGWSTRTA [Peptide 3 specific to nAchR (Table 3d), bipodal-peptide binder]
- binding result [11]: binds

Binder: HANFFQGSWTWENGKWTWKGWKYNQS [Peptide 1 specific to VEGF (Table 3b), bipodal-peptide binder]
- koff [6]: 0.013 s⁻¹
- kon [6]: 220000 M⁻¹ s⁻¹
- binding result (BSA): no binding
- Kd [7]: 60 nM
